Among the data in article PMC3365582 are stoichiometry N values, retold here.

The assay deals with PaiB transcriptional regulator from Geobacillus stearothermophilus (Geobacillus stearothermophilus). In words: crystal structure.

For orientation: stoichiometry N means a count of units in the complex or per binding partner.

In turn, “PaiB transcriptional regulator from Geobacillus stearothermophilus (natural protein)” registered a stoichiometry N of 2.
